The values below come from patent publication US9744220B2, “Compositions and methods for treating inflammatory diseases” (priority 2013, dated 2017).

Series [1] deals with cardiac fibroblasts. Briefly: sPDNF stimulation of primary cardiac fibroblasts, chemokine transcripts by qPCR. The series is classed as cell-based, mouse. To be noted: 3 hr, dose-dependent. The procedure: (§1) FIG. 7A is a graph depicting MCP-1 and FKN expression in cardiomyocytes of mice infected with T cruzi. FIG. 7B is a graph depicting MCP-1 and FKN expression in cardiac fibroblasts of mice infected with T cruzi. T cruzi infection: Primary cultures of mouse cardiomyocytes (FIG. 7A) and cardiac fibroblasts (FIG. 7B) were plated in 6-well plates, infected with T cruzi Tulahuen strain (MOI=10) for 3, 24, and 72 hr, and MCP-1 and FKN transcripts were quantified by qPCR. Chemokine gene expression was normalized to HPRT and fold change calculated relative to uninfected cells. Points represent mean±SD fold change expression of triplicate samples. The experiment was repeated, and similar results were obtained. FIG. 7C is a graph depicting MCP-1 and FKN expression in cardiomyocytes of mice injected with sPDNF. FIG. 7D is a graph depicting MCP-1 and FKN expression in cardiac fibroblasts of mice injected with sPDNF. sPDNF stimulation: Primary cardiomyocytes (FIG. 7C) and cardiac fibroblasts (FIG. 7D) were plated in 6-well plates, serum starved overnight, then stimulated with the indicated concentration of sPDNF (3 hr), and MCP-1 and FKN transcripts were quantified by qPCR. Chemokine gene expression was normalized to HPRT and fold change calculated relative to vehicle-treated cells; *P<0.05, **P<0.01, and ***P<0.005. […]
A general note: Real-time PCR tracks product formation cycle by cycle.

Series [2] relates to primary cardiomyocytes. The experiment in a line: sPDNF stimulation of primary cardiomyocytes, chemokine transcripts by qPCR. The class given is cell-based, mouse. To be noted: 3 hr, dose-dependent. On the procedure:
as §1

For series [3], the target named is TrkB (Homo sapiens, UniProt Q16620). To be noted: previous finding; cited from earlier work.
Series [4] is described as follows: Limulus amebocyte assay. To be noted: sPDNF preparations. The procedure: To ensure that the response observed in wild type mice was not due to TLR activation, MCP-1 and FKN response to IV sPDNF was assessed in TLR-deficient MyD88^−/− mice (23).
PDNF was cloned from the T cruzi Silvio X-10/4 strain (GenBank accession number AJ002174). PDNF and a N-terminal short-form of PDNF (sPDNF) that contains Trk-binding sites, were expressed in BL21 (DE3) bacteria, and purified by Ni-affinity chromatography, as described previously (4, 12, 18, 60). Buffers were prepared in sterile endotoxin-free water, and sPDNF preparations screened with the Limulus amebocyte assay have undetectable levels of endotoxin. sPDNF migrates as a 68 kDa protein on a SDS-PAGE gel. PDNF protein was buffer exchanged into PBS (0.01 M phosphate buffered saline, pH 7.2), filter-sterilized (0.22 μm), and kept at 4° C. PDNF was quantified by scanning densitometry (Bio-Rad, GS-800) of SDS-PAGE gels stained with Coomassie brilliant blue.

Series [5] in a line: Toxicity in RAG-2-/- deficient mice. The series is classed as in vivo. The settings on record: highly susceptible to endotoxin shock.

TrkB, sequence (Q16620 32-822, species assumed): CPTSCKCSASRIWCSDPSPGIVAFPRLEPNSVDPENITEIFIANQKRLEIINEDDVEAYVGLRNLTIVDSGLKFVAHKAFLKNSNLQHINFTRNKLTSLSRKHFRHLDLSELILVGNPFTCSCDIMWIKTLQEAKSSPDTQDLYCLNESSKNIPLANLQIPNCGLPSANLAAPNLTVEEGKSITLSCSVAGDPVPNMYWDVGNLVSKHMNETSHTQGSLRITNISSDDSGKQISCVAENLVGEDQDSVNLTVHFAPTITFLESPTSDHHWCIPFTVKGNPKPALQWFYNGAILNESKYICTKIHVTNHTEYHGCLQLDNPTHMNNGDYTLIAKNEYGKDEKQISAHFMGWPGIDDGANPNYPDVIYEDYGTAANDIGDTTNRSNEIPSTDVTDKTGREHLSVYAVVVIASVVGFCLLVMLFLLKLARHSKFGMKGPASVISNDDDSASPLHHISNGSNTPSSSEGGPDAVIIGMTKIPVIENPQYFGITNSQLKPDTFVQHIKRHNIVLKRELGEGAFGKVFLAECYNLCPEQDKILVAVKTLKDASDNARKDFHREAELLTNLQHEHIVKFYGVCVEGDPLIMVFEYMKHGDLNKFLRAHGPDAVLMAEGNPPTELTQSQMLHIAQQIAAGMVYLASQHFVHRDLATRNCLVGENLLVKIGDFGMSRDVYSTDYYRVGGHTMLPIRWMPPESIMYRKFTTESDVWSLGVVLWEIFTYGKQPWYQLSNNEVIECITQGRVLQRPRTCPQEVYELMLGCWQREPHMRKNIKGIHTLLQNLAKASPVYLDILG

B1: sPDNF: N-terminal short-form of T cruzi PDNF that contains Trk-binding sites, recombinant; amino acids 1-588 of SEQ ID NO: 2; JR-100 is the commercial name (protein, listed as Trypanosoma cruzi)
chain: MGKTVVVASRMFWLMFFVPLLLAICPSEPAYALAPGSSRVELFKRKNSTVPFEDKAGKVTERVVHSFRLPALVNVDGVMVAIADARYDTSNDNSLIDTVAKYSVDDGETWETQIAIKNSRVSSVSRVVDPTVIVKGNKLYVLVGSYYSSRSYWSSHGDARDWDILLAVGEVTKSTAGGKITASIKWGSPVSLKKFFPAEMEGMHTNQFLGGAGVAIVASNGNLVYPVQVTNKKKQVFSKIFYSEDDGKTWKFGKGRSDFGCSEPVALEWEGKLIINTRVDWKRRLVYESSDMEKPWVEAVGTVSRVWGPSPKSNQPGSQSSFTAVTIEGMRVMLFTHPLNFKGRWLRDRLNLWLTDNQRIYNVGQVSIGDENSAYSSVLYKDDKLYCLHEINTDEVYSLVFARLVGELRIIKSVLRSWKNWDSHLSSICTPADPAASSSESGCGPAVTTVGLVGFLSGNASQNVWEDAYRCVNASTANAERVRNGLKFAGVGGGALWPVSQQGQNQRYRFANHAFTLVASVTIHEAPRAASPLLGASLDSSGGKKLLGLSYDEKHQWQPIYGSTPVTPTGSWETGKRYHLVLTMANKI
Consider B1, for which, in series [1], the FKN transcripts result is on record as “increase” and the MCP-1 transcripts result is “increase”. Besides, in series [2], the FKN transcripts result is recorded as “increase” and the MCP-1 transcripts result is “increase”. Also, the “recognition of TrkB” value in series [3] is “not recognized”. In addition, the levels of endotoxin result in series [4] is “did not have detectable levels”. Also, in series [5], the toxicity entry is reported as “non-toxic”.
